Test results as given in patent publication US20190352413A1 (KYMAB, published 2019).

Experiments:
[1] = target: T1, Rat OPG-Fc (rat); experiment: SPR (ProteOn XPR36), antibody captured on anti-mouse IgG, OPG-Fc as analyte, 25 C, 1:1 model
T1 construct: The entry begins with a signal peptide ('usually cleaved upon expression'); also called rat OPG (in-house)
Method: (§1) Affinity of secreted antibodies was assessed by testing hybridoma supernatants by Label-free surface plasmon resonance (SPR). This analysis was carried out on the ProteOn XPR36 (BioRad) array SPR machine. An anti-mouse IgG capture surface was created on a GLC biosensor chip using amine coupling of an anti-mouse IgG from GE Healthcare. Test antibodies were captured on this surface and human, rat and cyno OPG (in-house) was used as the analyte at 256 nM, 64 nM, 16 nM, 4 nM and 1 nM for Ky3 (15F11), Ky4 (16G05), 5A06, 25F06, 15B08 and 10B07 and at a single concentration of 100 nM for Ky1 (6D07) and Ky2 (8C10). The assay was carried out at 25° C. using HBS-EP (Teknova H8022). Buffer alone was used to reference the binding sensorgrams. The data was analysed using the 1:1 model inherent to the ProteOn XPR36 analysis software.

[2] = target: T1, Rat OPG-Fc; experiment: SPR (ProteOn XPR36), antibody captured on anti-mouse IgG, OPG-Fc as analyte, 25 C, 1:1 model; apparent affinity
[3] = target: Human OPG-Fc (human); experiment: cell-based or functional assay
[4] = target: T2, Cyno OPG-Fc (cynomolgus); experiment: SPR (ProteOn XPR36); CNROR = cannot resolve off rate, no KD given
T2 construct: The entry begins with a signal peptide ('usually cleaved upon expression'); also called cyno OPG (in-house)

[5] = target: T3, Human OPG-Fc (human); experiment: HTRF competition, purified antibody titrated from 120 nM against 20 nM OPG and 55.6 nM RANKL-647; remaining specific binding of RANKL
T3 construct: also called hOPG-Fc; human OPG (in-house)

[6] = target: T3, Human OPG-Fc; experiment: HTRF competition, purified antibody titrated from 120 nM against 4 nM OPG-Fc and 16 nM TRAIL-Flag; inhibition of TRAIL binding
[7] = target: T2, Cyno OPG-Fc; experiment: SPR (ProteOn XPR36), antibody captured on anti-mouse IgG, OPG-Fc as analyte, 25 C, 1:1 model
Method: as §1

[8] = target: T3, Human OPG-Fc; experiment: as above
Method: as §1

[9] = target: T2, Cyno OPG-Fc; experiment: SPR (ProteOn XPR36), antibody captured on anti-mouse IgG, OPG-Fc as analyte, 25 C, 1:1 model; apparent affinity
[10] = target: T3, Human OPG-Fc; experiment: as above
[11] = target: T3, Human OPG-Fc; experiment: HTRF competition, purified antibody titrated from 120 nM against 4 nM OPG-Fc and 16 nM TRAIL-Flag; remaining specific binding of TRAIL
[12] = target: T2, Cyno OPG-Fc; experiment: SPR (ProteOn XPR36), antibody captured on anti-mouse IgG, OPG-Fc as analyte; CNROR = cannot resolve off rate, no KD given

T3 sequence (chain, as listed by the source limits assumed): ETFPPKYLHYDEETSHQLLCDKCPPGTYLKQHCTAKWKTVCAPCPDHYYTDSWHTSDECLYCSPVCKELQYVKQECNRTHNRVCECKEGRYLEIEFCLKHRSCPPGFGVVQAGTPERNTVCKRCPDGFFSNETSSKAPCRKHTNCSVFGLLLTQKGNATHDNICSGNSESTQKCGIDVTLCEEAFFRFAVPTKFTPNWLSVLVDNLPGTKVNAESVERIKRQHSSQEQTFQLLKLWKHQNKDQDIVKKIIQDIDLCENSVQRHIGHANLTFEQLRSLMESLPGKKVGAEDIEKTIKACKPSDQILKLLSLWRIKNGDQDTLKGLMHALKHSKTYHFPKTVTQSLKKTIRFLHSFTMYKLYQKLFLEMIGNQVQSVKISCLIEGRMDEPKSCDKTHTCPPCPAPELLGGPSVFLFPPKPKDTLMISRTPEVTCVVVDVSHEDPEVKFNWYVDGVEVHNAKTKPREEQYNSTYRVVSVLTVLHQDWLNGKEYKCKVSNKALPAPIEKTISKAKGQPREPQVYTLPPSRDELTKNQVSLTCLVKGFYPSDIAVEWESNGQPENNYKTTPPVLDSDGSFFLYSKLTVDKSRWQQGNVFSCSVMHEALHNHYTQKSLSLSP
T1 sequence (chain, as listed by the source limits assumed): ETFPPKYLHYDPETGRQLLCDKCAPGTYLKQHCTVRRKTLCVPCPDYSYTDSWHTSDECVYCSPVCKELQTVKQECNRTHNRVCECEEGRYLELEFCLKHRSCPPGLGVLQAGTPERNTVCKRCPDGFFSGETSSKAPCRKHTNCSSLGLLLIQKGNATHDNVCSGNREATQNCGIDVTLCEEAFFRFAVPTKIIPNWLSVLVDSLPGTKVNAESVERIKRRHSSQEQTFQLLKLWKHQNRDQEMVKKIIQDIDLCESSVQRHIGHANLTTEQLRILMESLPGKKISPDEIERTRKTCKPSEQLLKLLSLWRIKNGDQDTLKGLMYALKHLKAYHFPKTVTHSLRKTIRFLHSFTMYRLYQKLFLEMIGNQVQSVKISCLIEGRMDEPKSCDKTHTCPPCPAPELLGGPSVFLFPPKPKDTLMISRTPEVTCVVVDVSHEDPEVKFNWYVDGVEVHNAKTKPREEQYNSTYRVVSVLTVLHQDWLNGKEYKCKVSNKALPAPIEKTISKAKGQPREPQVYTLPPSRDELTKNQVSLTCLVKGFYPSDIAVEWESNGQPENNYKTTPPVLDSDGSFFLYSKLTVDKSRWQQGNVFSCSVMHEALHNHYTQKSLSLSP
T2 sequence (chain, as listed by the source limits assumed): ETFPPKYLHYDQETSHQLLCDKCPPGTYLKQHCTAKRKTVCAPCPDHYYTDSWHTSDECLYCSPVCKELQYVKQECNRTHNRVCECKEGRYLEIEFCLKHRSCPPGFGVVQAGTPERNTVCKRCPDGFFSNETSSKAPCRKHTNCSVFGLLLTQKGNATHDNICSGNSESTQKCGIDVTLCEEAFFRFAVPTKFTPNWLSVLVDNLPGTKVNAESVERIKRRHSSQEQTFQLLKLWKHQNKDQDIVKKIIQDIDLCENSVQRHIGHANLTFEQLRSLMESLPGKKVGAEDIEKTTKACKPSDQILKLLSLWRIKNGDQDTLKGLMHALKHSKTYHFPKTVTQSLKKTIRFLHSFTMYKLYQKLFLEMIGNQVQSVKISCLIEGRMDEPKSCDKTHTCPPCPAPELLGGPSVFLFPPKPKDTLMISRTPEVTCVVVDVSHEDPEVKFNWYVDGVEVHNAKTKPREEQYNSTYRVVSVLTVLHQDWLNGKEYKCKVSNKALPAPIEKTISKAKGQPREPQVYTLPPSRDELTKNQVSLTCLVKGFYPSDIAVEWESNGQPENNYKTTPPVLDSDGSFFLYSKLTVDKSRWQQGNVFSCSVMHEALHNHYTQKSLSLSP

Binder | Kd [1] [nM] | Kd [2] [nM] | EC50 (read off the curve) [3] [nM] | binding result [4] | % Max Specific binding [5] [%] | IC50 [6] [nM] | Kd [7] [nM] | Kd [8] [nM] | Kd [9] [nM] | Kd [10] [nM] | % Max Specific binding [11] [%] | binding result [12]
Ky3 (15F11) (antibody, V domains shown, Campaign KM058; In SPR and HTRF it was tested as hybridoma material (human variable regions, mouse constant regions; captured on anti-mouse IgG)) VH: EVQLVESGGGLVQPGGSLRLSCAASGFTFGRYDMNWVRQTTGKGLEWVSAIGTAGDTYYPGSVKGRFTISRENAKNSLYLQMNSLRPGDTAVYYCARARPYYYDSGSYYHAPFDYWGQGTLVTVSS VL: not shown | 0.12 | 0.12 | ~10 | binds | 27.1 | 1.4 | – | – | – | – | – | –
Ky1 (6D07) (antibody, V domains shown, Campaign KM059; In SPR and HTRF it was tested as hybridoma material (human variable regions, mouse constant regions; captured on anti-mouse IgG)) VH: QVQLVQSGAEVKKPGASVKVSCKASGYTFTSYGISWVRQAPGQGLEWMGWISAYNGNTNYKQKLQGRVTMTTDTSTSTAYMELRSLRSDDTAVYYCARGGSGRYYPWGQGTLVTVSS VL: DIQMTQSPSSLSASVGDRVTITCRASQGIRNDLGWYQQIPGKAPKRLIYDASSLQSGVPSRFSGSGSGTEFTLTISSLQPEDFATYYCLQHNSYPFTFGPGTKVDIK | 1.35 | 1.35 | – | – | – | – | 14.8 | 0.17 | 14.8 | 0.17 | 4.8 | –
Ky2 (8C10) (antibody, V domains shown, Campaign KM059; In SPR and HTRF it was tested as hybridoma material (human variable regions, mouse constant regions; captured on anti-mouse IgG)) VH: EVQLVESGGGLVQPGRSLRLSCAASGFTFDDYAMHWVRQGPGKGLEWVSSISWNSGRIDYADSVKGRFTISRDNAKNSLYLQMNRLRAEDTALYYCAKDGFYDILTGSFFDYWGQGILVTVSS VL: DIQMTQSPSSLSASVGDRVTITCRASQSISSYLNWYHQEPGKAPNLLIYGASSLQSGVPSRFSGSGSGTDFTLTISSLQPEDFATYYCQQSYSAPPEWTFGQGTKVEIK | 7.39 | 7.39 | – | binds | – | – | – | 0.1 | – | 0.1 | 20.1 | –

Now from value to binder:

Kd [1] [nM] | Kd [2] [nM] | EC50 (read off the curve) [3] [nM] | binding result [4] | % Max Specific binding [5] [%] | IC50 [6] [nM] | Kd [7] [nM] | Kd [8] [nM] | Kd [9] [nM] | Kd [10] [nM] | % Max Specific binding [11] [%] | binding result [12] | Binder
1.3 | 1.3 | – | – | 65.1 | – | 0.166 | 0.18 | 0.17 | 0.18 | 50.7 | – | Ky4 (16G05) (antibody, V domains shown, Campaign KM058; In SPR and HTRF it was tested as hybridoma material (human variable regions, mouse constant regions; captured on anti-mouse IgG)) VH: EVQLVESGGGLVQPGRSLRLSCAVSGFTFDDYAMHWVRQPPGKGLEWVSGISWNSGSIDYADSVKGRFTISRDNAKNSLYLQMNSLRAEDTALYYCAKDYYYDSSAYVLFDYWGQGTLVTVSS VL: DIQMTQSPSSLSASVGDRVIITCRASQSISSYLNWYQQKPGKAPELLIYGASSLQSGVPSRFSGSGSGTDFTLTISSLQPEDFATYYCQQSFSTPLTFGGGTKVEIK
0.36 | 0.36 | – | – | 86.6 | – | – | 0.18 | – | 0.18 | 55.8 | binds | Ky5 (15H06) (antibody, V domains shown, Campaign KM058; In SPR and HTRF it was tested as hybridoma material (human variable regions, mouse constant regions; captured on anti-mouse IgG)) VH: not shown VL: AIQMTQSPSSVSASVGDRVTITCRASQGISSWLAWYQQKPGKAPKLLIYAASSLHSGVPSRFSGSGSETDFTLTISSLHPEDFATYYCQQSNSFPLTFGGGTKVEIK
